Test results as given in article PMC11154709, “4S-fluorination of ProB29 in insulin lispro slows fibril formation” (The Journal of Biological Chemistry, 2024).

Assay: Far-UV circular dichroism (secondary structure)
Assay type: physicochemical
Conditions: 60 μM; statement in discussion of CD spectra
Procedure: Figure 2 Biological activity and CD spectroscopy of lispro variants.A, lispros were injected subcutaneously into diabetic mice, and blood glucose was measured over time after injection. The data presented here represent the mean ± SD of 3 to 6 biological replicates. B–E, far-UV circular dichroism spectra (60 μM lispro in […] phosphate buffer, pH 8.0). […] 4R-F, 4R-fluoroproline; 4S-F, 4S-fluoroproline.
The secondary structure of each insulin lispro variant was probed by circular dichroism spectroscopy. […] All lispro samples were further analyzed by analytical ultracentrifugation (Fig. S3). To determine the dissociation constant of each variant, we fit the data to a reversible monomer-dimer equilibrium ([29]). […]
Circular dichroism spectroscopy:
Equilibrium measurements: The circular dichroism spectra of insulin or lispro samples (60 µM in
100 mM sodium phosphate, pH 8.0) were measured at 25°C in 1 mm quartz cuvettes using a step
size of 0.5 nm and averaging time of 1 s on an Aviv Model 430 Circular Dichroism
Spectrophotom eter. A reference buffer spectrum was subtracted from each sample spectrum. […]
Analytical ultracentrifugation: […]

In the case of “human insulin: 5.8 kDa peptide hormone composed of two disulfide-linked chains (A and B)”, the “oligomeric state at 60 μM” value was “exists as a dimer at 60 μM”.
